Assay results from publication PMC4505944, “The THERMOSENSITIVE MALE STERILE 1 Interacts with the BiPs via DnaJ Domain and Stimulates Their ATPase Enzyme Activities in Arabidopsis” (PLoS ONE, 2015).

What was measured:
[1] = target: T1, BiP1 without signal peptide, His-tagged (Arabidopsis thaliana, UniProt Q9LKR3 28-669); experiment: pull-down; 30 μg GST fusion or GST on Glutathione Sepharose 4B beads; 30 μg purified BiP1 or BiP3 with 1 mM ATP in 1 mL binding buffer (20 mM Hepes pH 6.8, 100 mM KCl, 5 mM MgCl2, 0.1% NP-40, 2% glycerol, 1 mM DTT, 1 mM EDTA), 4°C, 2 h; anti-His blot; settings: both partners purified
T1 construct: full-length CDS without the signal peptide; Cloned into pET30a(+) (EcoRI/XhoI); further vector-derived residues between the tag and BiP1 are likely; also called BiP1-His; source: E. coli BL21, purified, dialyzed; not shown: His6, N-terminal, kept
T1 sequence (Q9LKR3 28-669): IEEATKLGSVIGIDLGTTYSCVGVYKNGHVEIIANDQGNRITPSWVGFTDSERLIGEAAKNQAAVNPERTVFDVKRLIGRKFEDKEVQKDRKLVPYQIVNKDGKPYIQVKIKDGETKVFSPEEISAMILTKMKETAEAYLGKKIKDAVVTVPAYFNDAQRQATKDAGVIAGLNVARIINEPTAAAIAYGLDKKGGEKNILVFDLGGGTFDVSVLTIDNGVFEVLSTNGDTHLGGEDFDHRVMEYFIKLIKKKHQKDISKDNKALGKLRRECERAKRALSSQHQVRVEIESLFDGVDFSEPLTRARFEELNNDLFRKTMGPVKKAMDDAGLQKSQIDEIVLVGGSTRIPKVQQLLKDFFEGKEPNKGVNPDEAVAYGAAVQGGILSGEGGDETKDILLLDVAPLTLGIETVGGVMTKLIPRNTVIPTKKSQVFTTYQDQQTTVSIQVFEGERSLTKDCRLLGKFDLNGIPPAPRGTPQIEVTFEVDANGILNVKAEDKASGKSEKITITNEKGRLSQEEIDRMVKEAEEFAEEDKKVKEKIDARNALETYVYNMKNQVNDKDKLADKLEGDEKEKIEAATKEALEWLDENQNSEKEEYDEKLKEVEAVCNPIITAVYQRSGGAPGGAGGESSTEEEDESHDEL

[2] = target: T2, BiP3 without signal peptide, His-tagged (Arabidopsis thaliana, UniProt Q8H1B3 36-675); experiment: as above; settings: both partners purified
T2 construct: full-length CDS without the signal peptide; Cloned into pET30a(+) (EcoRI/XhoI); further vector-derived residues between the tag and BiP3 are likely; also called BiP3-His; source: E. coli BL21, purified, dialyzed; not shown: His6, N-terminal, kept
T2 sequence (Q8H1B3 36-675): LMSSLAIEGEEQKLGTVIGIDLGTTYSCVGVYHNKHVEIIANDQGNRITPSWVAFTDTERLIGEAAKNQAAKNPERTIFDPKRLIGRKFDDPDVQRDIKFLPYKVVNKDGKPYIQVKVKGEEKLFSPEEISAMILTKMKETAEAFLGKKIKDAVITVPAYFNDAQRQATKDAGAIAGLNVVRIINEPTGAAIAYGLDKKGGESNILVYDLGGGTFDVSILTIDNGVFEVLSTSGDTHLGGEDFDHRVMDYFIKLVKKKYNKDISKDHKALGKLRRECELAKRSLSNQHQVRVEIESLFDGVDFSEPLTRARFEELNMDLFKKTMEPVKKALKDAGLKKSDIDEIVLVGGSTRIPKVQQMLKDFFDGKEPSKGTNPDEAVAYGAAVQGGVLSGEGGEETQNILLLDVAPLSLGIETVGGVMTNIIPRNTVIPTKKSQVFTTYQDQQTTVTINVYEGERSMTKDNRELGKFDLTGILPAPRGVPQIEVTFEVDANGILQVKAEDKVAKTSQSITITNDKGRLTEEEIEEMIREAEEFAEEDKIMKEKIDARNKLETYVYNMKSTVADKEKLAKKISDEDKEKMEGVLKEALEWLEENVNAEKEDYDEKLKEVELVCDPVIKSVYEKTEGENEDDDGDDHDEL

binding result [1]: binds | binding result [2]: binds
B1: recombinant TMS1 DnaJ domain with a GST tag (domain or fragment, Arabidopsis thaliana, UniProt Q9SR96 27-80, looked up)
chain: DPYKVLGVSKDAKQREIQKAFHKQSLKYHPDKNKDKGAQEKFAEINNAYEILSD
notes: DnaJ domain of TMS1 (AtERdj3A), Arabidopsis thaliana, 54 amino acid residues, 27-80 aa in TMS1; Cloned into pGEX4T-1 (EcoRI/XhoI); also called GST-DnaJ; source: E. coli BL21, purified, dialyzed
